Experimental data from patent US20260265789A1, “METHOD FOR IMPROVING 2, 4 DIHYDROXYBUTYRIC ACID PRODUCTION AND YIELD” (ADISSEO FRANCE S.A.S, priority 2023, published 2026).

How the values were obtained:
[1] = target: T1, Escherichia coli pyruvate aldolase Eda (E.C. 4.1.2.14) (Escherichia coli, UniProt P0A955); test: Kinetic characterization of pyruvate aldolase on OHB (coupled LdhA/NADH assay, 340 nm); assay type: biochemical; settings: Tris-HCl 50 mM pH 7.5, 5 mM MgCl2, 37° C., 0 to 13 mM OHB
T1 construct: coupled LdhA/NADH assay
T1 sequence (P0A955 1-213): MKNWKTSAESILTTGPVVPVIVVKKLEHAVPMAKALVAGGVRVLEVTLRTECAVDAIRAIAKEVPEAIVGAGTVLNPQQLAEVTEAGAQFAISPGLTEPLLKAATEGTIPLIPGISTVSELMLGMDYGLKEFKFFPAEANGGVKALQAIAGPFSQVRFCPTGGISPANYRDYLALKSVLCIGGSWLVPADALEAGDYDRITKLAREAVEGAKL

garL = test: Transcriptomic analysis during DHB fermentation: aldolase gene expression; assay type: cell-based, Escherichia coli; settings: in presence of significant amount of DHB
yfaU = test: as above; assay type: cell-based, Escherichia coli; settings: in presence of significant amount of DHB
yagE = test: as above; assay type: cell-based, Escherichia coli; settings: in presence of significant amount of DHB
rhmA = test: as above; assay type: cell-based, Escherichia coli; settings: in presence of significant amount of DHB
YjhH = test: as above; assay type: cell-based, Escherichia coli; settings: in presence of significant amount of DHB
[2] = substrate: O=C(O)C(=O)CCO; test: purified protein, by the assay type; assay type: biochemical, Escherichia coli; settings: Tris-HCl 50 mM pH 7.5, 5 mM MgCl2, 37° C., 0 to 13 mM OHB
[3] = In vivo capacity to degrade OHB by deletion of genes encoding pyruvate aldolase; assay type: cell-based, Escherichia coli; settings: E. coli, gene deletion strains incubated with DHB
Text: We measured production of formate in strains that were deleted for one of these aldolase encoding gene.

[4] = variant obtained by in vivo evolution (Bouzon et al., 2017); cited from earlier work

Work on `O=C(O)C(=O)CCO` [OHB, 2-oxo-4-hydroxybutyrate] yielded a Km [1] of over 20000 µM.

In the case of `O=C(O)C(O)CCO` (racemic) [DHB, 2,4-dihydroxybutyric acid], the “Maximal Expression” value (garL) is reported as 1.32, the “Minimal Expression” value (garL) is reported as 1.06 and the “Maximal Expression” value (yfaU) is reported as 1.09. The “Minimal Expression” value (yfaU) was 0.9, the “Maximal Expression” value (yagE) was 13.33 and the “Minimal Expression” value (yagE) was 1.82. For the same molecule, the “Maximal Expression” value (rhmA) was 1.14, the “Minimal Expression” value (rhmA) was 0.98 and the “Maximal Expression” value (YjhH) was 3.33. For the same molecule, the “Minimal Expression” value (YjhH) was 1.25.

B1: Escherichia coli pyruvate aldolase YagE (E.C. 4.1.2.28) (Escherichia coli K-12) (protein)
chain: MPQSALFTGIIPPVSTIFTADGQLDKPGTAALIDDLIKAGVDGLFFLGSGGEFSQLGAEERKAIARFAIDHVDRRVPVLIGTGGTNARETIELSQHAQQAGADGIVVINPYYWKVSEANLIRYFEQVADSVTLPVMLYNFPALTGQDLTPALVKTLADSRSNIIGIKDTIDSVAHLRSMIHTVKGAHPHFTVLCGYDDHLFNTLLLGGDGAISASGNFAPQVSVNLLKAWRDGDVAKAAGYHQTLLQIPQMYQLDTPFVNVIKEAIVLCGRPVSTHVLPPASPLDEPRKAQLKTLLQQLKLC
notes: coupled LdhA/NADH assay
With B1 the Km ([2]; other: YagE) was 350 µM, the Vmax ([2]; other: YagE) was 0.63 µmol/min/mg and the kcat ([2]; other: YagE) was 0.04 s⁻¹. The kcat/Km ([2]; other: YagE) was 115 M⁻¹ s⁻¹.

B2: YagE: E. coli pyruvate aldolase, E.C. 4.1.2.28, natural substrate 2-keto-3-deoxy-D-arabinonate; His-tagged recombinant protein (protein, UniProt P75682 1-302, looked up)
Putative …: B1 chain
modifications: His tag
notes: E. coli pyruvate aldolase, E.C; 4.1.2.28, natural substrate 2-keto-3-deoxy-D-arabinonate; His-tagged recombinant protein
With B2 the “function on OHB in vivo” value [3] was “most efficient to degrade OHB in vivo”.

B3: YjhH: E. coli pyruvate aldolase, E.C. 4.1.2.28, natural substrate 2-keto-3-deoxy-D-arabinonate; His-tagged recombinant protein (protein, UniProt P39359 1-301, looked up)
Probable …: MKKFSGIIPPVSSTFHRDGTLDKKAMREVADFLINKGVDGLFYLGTGGEFSQMNTAQRMALAEEAVTIVDGRVPVLIGVGSPSTDEAVKLAQHAQAYGADGIVAINPYYWKVAPRNLDDYYQQIARSVTLPVILYNFPDLTGQDLTPETVTRLALQNENIVGIKDTIDSVGHLRTMINTVKSVRPSFSVFCGYDDHLLNTMLLGGDGAITASANFAPELSVGIYRAWREGDLATAATLNKKLLQLPAIYALETPFVSLIKYSMQCVGLPVETYCLPPILEASEEAKDKVHVLLTAQGILPV
modifications: His tag
notes: as for B2
In the case of B3, the “function on OHB in vivo” value [3] is reported as “most efficient to degrade OHB in vivo”.

B4: Escherichia coli pyruvate aldolase DgoA (E.C. 4.1.2.21) (Escherichia coli K-12) (protein)
chain: MQWQTKLPLIAILRGITPDEALAHVGAVIDAGFDAVEIPLNSPQWEQSIPAIVDAYGDKALIGAGTVLKPEQVDALARMGCQLIVTPNIHSEVIRRAVGYGMTVCPGCATATEAFTALEAGAQALKIFPSSAFGPQYIKALKAVLPSDIAVFAVGGVTPENLAQWIDAGCAGAGLGSDLYRAGQSVERTAQQAAAFVKAYREAVQ
notes: coupled LdhA/NADH assay
B4 showed a Km ([2]; other: DgoA) of 2800 µM, a Vmax ([2]; other: DgoA) of 0.04 µmol/min/mg and a kcat ([2]; other: DgoA) of 0.012 s⁻¹. The kcat/Km ([2]; other: DgoA) was 4.7 M⁻¹ s⁻¹.

B5: AlaC^A142PY275D: variant of alanine-α-ketoglutarate transaminase from E coli Ec-AlaC, obtained by in vivo evolution (Bouzon et al., 2017) (protein, UniProt P77434 1-412, looked up, variant A142P Y275D)
Glutamate-pyruvate …: MADTRPERRFTRIDRLPPYVFNITAELKMAARRRGEDIIDFSMGNPDGATPPHIVEKLCTVAQRPDTHGYSTSRGIPRLRRAISRWYQDRYDVEIDPESEAIVTIGSKEGLAHLMLATLDHGDTVLVPNPSYPIHIYGAVIPGAQVRSVPLVEGVDFFNELERAIRESYPKPKMMILGFPSNPTAQCVELEFFEKVVALAKRYDVLVVHDLAYADIVYDGWKAPSIMQVPGARDVAVEFFTLSKSYNMAGWRIGFMVGNKTLVSALARIKSYHDDGTFTPLQVAAIAALEGDQQCVRDIAEQYKRRRDVLVKGLHEAGWMVEMPKASMYVWAKIPEPYAAMGSLEFAKKLLNEAKVCVSPGIGFGDYGDTHVRFALIENRDRIRQAIRGIKAMFRADGLLPASSKHIHENAE
In the case of B5, the “higher catalytic activity on homoserine” value [4] is given as 100 fold.

B6: YfaU: E. coli pyruvate aldolase, E.C. 4.1.2.53, natural substrate 2-keto-3-deoxy-L-rhamnonate (protein, UniProt P76469 1-267, looked up)
2-keto-3-deoxy-L-rhamnonate …: MNALLSNPFKERLRKGEVQIGLWLSSTTAYMAEIAATSGYDWLLIDGEHAPNTIQDLYHQLQAVAPYASQPVIRPVEGSKPLIKQVLDIGAQTLLIPMVDTAEQARQVVSATRYPPYGERGVGASVARAARWGRIENYMAQVNDSLCLLVQVESKTALDNLDEILDVEGIDGVFIGPADLSASLGYPDNAGHPEVQRIIETSIRRIRAAGKAAGFLAVAPDMAQQCLAWGANFVAVGVDTMLYSDALDQRLAMFKSGKNGPRIKGSY
With B6 the “function on OHB in vivo” value [3] was “do not have any function on OHB in vivo”.

B7: GarL: E. coli pyruvate aldolase, E.C. 4.1.2.20, natural substrate 5-dehydro-4-deoxy-D-glucarate (protein, UniProt P23522 1-256, looked up)
5-keto-4-deoxy-D-glucarate …: MNNDVFPNKFKAALAAKQVQIGCWSALSNPISTEVLGLAGFDWLVLDGEHAPNDISTFIPQLMALKGSASAPVVRVPTNEPVIIKRLLDIGFYNFLIPFVETKEEAELAVASTRYPPEGIRGVSVSHRANMFGTVADYFAQSNKNITILVQIESQQGVDNVDAIAATEGVDGIFVGPSDLAAALGHLGNASHPDVQKAIQHIFNRASAHGKPSGILAPVEADARRYLEWGATFVAVGSDLGVFRSATQKLADTFKK
With B7 the “function on OHB in vivo” value [3] was “do not have any function on OHB in vivo”.
